According to article doi:10.1101/2020.08.13.249979 (bioRxiv, 2020):
Substitutions are numbered along the chain they refer to. Numbers in names are those of the source. Where “and” joins values, the source holds several entries; their conditions need not be identical. Identical values can stand only once.

Legend:
cryo-EM structure = target: the molecule itself; assay: cryo-EM structure
cross-linking = target: the molecule itself; assay: cross-linking
negative stain EM = target: the molecule itself; assay: negative stain EM

B1: Vipp1/IM30 from Nostoc punctiforme, full-length (amino acids 1-258) (natural protein)
chain: MGLFDRIKRVVSSNLNDLVNKAEDPEKMLEQAILEMQEDLVQLRQGVAQAIAAQKRSEKQYNDAQNEINKWQRNAQLALQKGDENLARQALERKKTYTDTSAALKASLDTQSTQVETLKRNLIQLESKISEAKTKKEMLKARITTAKAQEQLQGMVRGMNTSSAMSAFERMEEKVLMQESRAQALGELAGADLETQFAQLEGGSDVDDELAALKAQMLPPATPVTQAQLPPQQETTPAKSNEVVDAELDSLRKQLDQL
cryo-EM structure
  stoichiometry N: 84 subunits and 55 subunits to 119 subunits (2×)

B2: Vipp1_(L86C/L193C) (natural protein)
chain: B1 chain with L86C, L193C
cross-linking
  binding result: binds

B3: Vipp1Δα6_(1-219) (domain or fragment)
chain: MGLFDRIKRVVSSNLNDLVNKAEDPEKMLEQAILEMQEDLVQLRQGVAQAIAAQKRSEKQYNDAQNEINKWQRNAQLALQKGDENLARQALERKKTYTDTSAALKASLDTQSTQVETLKRNLIQLESKISEAKTKKEMLKARITTAKAQEQLQGMVRGMNTSSAMSAFERMEEKVLMQESRAQALGELAGADLETQFAQLEGGSDVDDELAALKAQMLP
Negative stain EM
  binding result: binds
